The values that follow come from patent US20090041770A1.

In the experiment the target is human FcRn fused to a His-tag and glutathione S transferase (FcRn-His-GST), complex of FcRn heavy chain with beta-2-microglobulin (human) (UniProt P55899). Put plainly: AlphaScreen competition. A general note: In Alpha technology, singlet oxygen from a donor bead excites a nearby acceptor bead.

Regarding V264N (antibody), the FcRn Binding ratio Variant / WT stood at 3.39.
Next, H285K (antibody): 1.76.
On to E318Y (antibody), for which the FcRn Binding ratio Variant / WT is 6.14.
As for E269P (antibody), the FcRn Binding ratio Variant / WT was determined as 1.23.
With S239D/E272I/I332E (antibody), the FcRn Binding ratio Variant / WT was found to be 1.81.
Turning to P238M (antibody), the FcRn Binding ratio Variant / WT amounted to 2.33.
As to V264A (antibody), the FcRn Binding ratio Variant / WT was 1.12.
Consider S239D/E272S/I332E (antibody), for which the FcRn Binding ratio Variant / WT was 1.49.
The value for P227E (antibody) was 1.49; that for S239V (antibody) was 1.17.
The value for Y278I (antibody) was 1.52; that for H268E (antibody) was 1.71; that for G236K (antibody) was 1.38.
As for S239D/K326T/I332E (antibody), the FcRn Binding ratio Variant / WT is 2.22.
Next, I336E (antibody): 8.11; P227G (antibody): 1.67; L328Q/I332E (antibody): 4.29.
For P238N (antibody), the FcRn Binding ratio Variant / WT came out at 1.15.
Next, E272D (antibody): 1.37; Y278N (antibody): 1.33; P329R (antibody): 1.64.
Next, I332T (antibody): 1.02; N286E (antibody): 2.12; R292D (antibody): 1.67.
The value for T335N (antibody) was 1.23.
On to E272I (antibody), for which the FcRn Binding ratio Variant / WT was 1.05.
For T335I (antibody), the FcRn Binding ratio Variant / WT was determined as 1.41.
For the substance E233W (antibody), the FcRn Binding ratio Variant / WT was determined as 1.64.
K274F (antibody): the FcRn Binding ratio Variant / WT worked out at 1.02.
Take G237Q (antibody): the FcRn Binding ratio Variant / WT was 1.39.
Consider H285Q (antibody), for which the FcRn Binding ratio Variant / WT stood at 1.38.
Next, L234E (antibody): 1.25; P329W (antibody): 3.16; E272R (antibody): 1.83.
With Y278V (antibody), the FcRn Binding ratio Variant / WT was determined as 1.27.
In the case of D270S (antibody), the FcRn Binding ratio Variant / WT is 1.03.
Next, L328D/I332E (antibody): 11.8.
Next, P238E (antibody): 3.71; S239D/E272Y/I332E (antibody): 1.31.
F241L (antibody): the FcRn Binding ratio Variant / WT stood at 1.99.
Next, A327Y (antibody): 1.23.
Next, A330V (antibody): 1.78.
The value for G237S (antibody) was 1.29; that for L234H (antibody) was 1.48.
As for V284T (antibody), the FcRn Binding ratio Variant / WT was 1.15.
On to G281D (antibody), for which the FcRn Binding ratio Variant / WT stood at 1.33.
As for I332Y (antibody), the FcRn Binding ratio Variant / WT was 1.43.
With S304N (antibody), the FcRn Binding ratio Variant / WT was found to be 1.19.
Next, T260E (antibody): 5.49; V264S (antibody): 5.13; S239R (antibody): 1.04.
The value for K288Y (antibody) was 1.1.
On to G236F (antibody), for which the FcRn Binding ratio Variant / WT turned out to be 1.75.
Take L234N (antibody): the FcRn Binding ratio Variant / WT worked out at 1.06.
As to A330P (antibody), the FcRn Binding ratio Variant / WT is 5.48.
Next, K274G (antibody): 1.04; R255Y (antibody): 12.9.
The value for Y300Q (antibody) was 1.11; that for E333M (antibody) was 5.46.
In the case of P331F (antibody), the FcRn Binding ratio Variant / WT came out at 3.91.
Next, E269K (antibody): 1.23.
Next, V282G (antibody): 1.16.
L235Y (antibody): the FcRn Binding ratio Variant / WT worked out at 1.02.
The value for E272L (antibody) was 1.81; that for L235N (antibody) was 1.32.
Take P271I (antibody): the FcRn Binding ratio Variant / WT turned out to be 1.99.
The value for Q295T (antibody) was 3.82; that for S324D (antibody) was 1.27.
Consider G237Y (antibody), for which the FcRn Binding ratio Variant / WT turned out to be 1.92.
Turning to P331Y (antibody), the FcRn Binding ratio Variant / WT was determined as 6.06.
With G237R (antibody), the FcRn Binding ratio Variant / WT was found to be 1.36.
In the case of N276D (antibody), the FcRn Binding ratio Variant / WT came out at 1.18.
Take S239E (antibody): the FcRn Binding ratio Variant / WT was 1.47.
Next, D265G (antibody): 1.74; H224Y (antibody): 1.68.
The value for S239G (antibody) was 1.16; that for P228G (antibody) was 1.77; that for V264T (antibody) was 1.66.
Regarding D265R (antibody), the FcRn Binding ratio Variant / WT was 1.16.
As for T299F (antibody), the FcRn Binding ratio Variant / WT stood at 1.86.
In the case of Y278M (antibody), the FcRn Binding ratio Variant / WT came to 1.28.
Next, E294I (antibody): 1.09.
For I332H (antibody), the FcRn Binding ratio Variant / WT is 1.24.
Next, L328H/I332E (antibody): 1.16.
Next, K222Y (antibody): 1.31; L328F (antibody): 2.06; E283P (antibody): 1.33.
Turning to Y278R (antibody), the FcRn Binding ratio Variant / WT worked out at 1.23.
E233S (antibody): the FcRn Binding ratio Variant / WT is 1.1.
With R301E (antibody), the FcRn Binding ratio Variant / WT was 2.92.
The value for P230G (antibody) was 1.16; that for K274M (antibody) was 1.01; that for D221K (antibody) was 5.66.
The value for G237P (antibody) was 2.8; that for P271V (antibody) was 1.06.
Consider L328A (antibody), for which the FcRn Binding ratio Variant / WT was found to be 1.32.
For L328I/I332E (antibody), the FcRn Binding ratio Variant / WT is 2.21.
With I332N (antibody), the FcRn Binding ratio Variant / WT was determined as 3.2.
With E269W (antibody), the FcRn Binding ratio Variant / WT came out at 1.19.
On to G236Q (antibody), for which the FcRn Binding ratio Variant / WT is 1.46.
In the case of Y278L (antibody), the FcRn Binding ratio Variant / WT was 1.74.
The value for E283R (antibody) was 1.86.
G237H (antibody): the FcRn Binding ratio Variant / WT was determined as 1.48.
With S239D (antibody), the FcRn Binding ratio Variant / WT came out at 1.73.
Next, E272T (antibody): 2.46; N286P (antibody): 2.9.
Turning to N276R (antibody), the FcRn Binding ratio Variant / WT was 1.19.
Regarding G236E (antibody), the FcRn Binding ratio Variant / WT turned out to be 1.46.
Turning to N325D (antibody), the FcRn Binding ratio Variant / WT worked out at 1.45.
For the substance K320W (antibody), the FcRn Binding ratio Variant / WT came out at 1.11.
Next, A330L/I332E (antibody): 1.5; A327K (antibody): 1.01; Y300M (antibody): 1.1.
Consider D249Q (antibody), for which the FcRn Binding ratio Variant / WT is 2.06.
Regarding V240M (antibody), the FcRn Binding ratio Variant / WT came out at 2.5.
In the case of F243L/V262I/V264W (antibody), the FcRn Binding ratio Variant / WT amounted to 1.35.
For V284L (antibody), the FcRn Binding ratio Variant / WT was found to be 1.51.
Next, S239E/V264I/A330Y/I332E (antibody): 2.36; E233M (antibody): 1.13.
For the substance P238S (antibody), the FcRn Binding ratio Variant / WT is 1.12.
Take F243W (antibody): the FcRn Binding ratio Variant / WT was determined as 4.63.
Next, Y278D (antibody): 1.79; P271S (antibody): 1.14.
The value for S298E (antibody) was 1.54.
The value for N276F (antibody) was 1.18; that for K320L (antibody) was 1.07; that for S239Q/I332N (antibody) was 1.11.
As for I336K (antibody), the FcRn Binding ratio Variant / WT is 12.1.
In the case of L234Y (antibody), the FcRn Binding ratio Variant / WT was determined as 1.9.
Take G236Y (antibody): the FcRn Binding ratio Variant / WT amounted to 1.52.
The value for G236H (antibody) was 1.48; that for Q295V (antibody) was 1.19.
Next, P230E (antibody): 1.01.
Next, H285W (antibody): 1.33; H268M (antibody): 1.88.
As for N325F (antibody), the FcRn Binding ratio Variant / WT was 1.22.
For Y296E (antibody), the FcRn Binding ratio Variant / WT was found to be 1.23.
